Laboratory results from patent US6875851.

Assays:
Peptide 10 = biological target: T1, Peptide 10
T1 chain: VEPIPY

Peptide 11 = biological target: T2, Peptide 11
T2 chain: RGPFPI

Peptide 12 = biological target: T3, Peptide 12
T3 chain: ARPAK

Peptide 13 = biological target: T4, Peptide 13
T4 chain: PNPNQGNFI

Peptide 14 = biological target: T5, Peptide 14
T5 chain: RHPKYKTEL

Peptide 15 = biological target: T6, Peptide 15
T6 chain: GVPKTHLEL

Peptide 16 = biological target: T7, Peptide 16
T7 chain: KGPPAALTL

Peptide 18 = biological target: T8, Peptide 18
T8 chain: FLREPVIFL

Peptide 19 = biological target: T9, Peptide 19
T9 chain: GIRPYEILA

Peptide 22 = biological target: T10, Peptide 22
T10 chain: KIAGYHLEL

Peptide 2 = biological target: T11, Peptide 2
T11 chain: RPPGF

Peptide 5 = biological target: T12, Peptide 5
T12 chain: RPGFSPFR

Peptide 8 = biological target: T13, Peptide 8
T13 chain: VPPGEDSK

Peptide 9 = biological target: T14, Peptide 9
T14 chain: VPPGEDSK

B1: prolyl-tripeptidyl peptidase A from P. gingivalis (protein)
chain: QSPETSGKEFTLEQLMPGGKEFYNFYPEYVVGLQWMGDNYVFIEGDDLVFNKANGKSAQTTRFSAADLNALMPEGCKFQTTDAFPSFRTLDAGRGLVVLFTQGGLVGFDMLARKVTYLFDTNEETASLDFSPVGDRVAYVRNHNLYIARGGKLGEGMSRAIAVTIDGTETLVYGQAVHQREFGIEKGTFWSPKGSCLAFYRMDQSMVKPTPIVDYHPLEAESKPLYYPMAGTPSHHVTVGIYHLATGKTVYLQTGEPKEKFLTNLSWSPDENILYVAEVNRAQNECKVNAYDAETGRFVRTLFVETDKHYVEPLHPLTFLPGSNNQFIWQSRRDGWNHLYLYDTTGRLIRQVTKGEWEVTNFAGFDPKGTRLYFESTEASPLERHFYCIDIKGGKTKDLTPESGMHRTQLSPDGSAIIDIFQSPTVPRKVTVTNIGKGSHTLLEAKNPDTGYAMPEIRTGTIMAADGQTPLYYKLTMPLHFDPAKKYPVIVYVYGGPHAQLVTKTWRSSVGGWDIYMAQKGYAVFTVDSRGSANRGAAFEQVIHRRLGQTEMADQMCGVDFLKSQSWVDADRIGVHGWSYGGFMTTNLMLTHGDVFKVGVAGGPVIDWNRYEIMYGERYFDAPQENPEGYDAANLLKRAGDLKGRLMLIHGAIDPVVVWQHSLLFLDACVKARTYPDYYVYPSHEHNVMGPDRVHLYETITRYFTDHL
B1 was tested, and the Cleavage site (Peptide 1) was “H-Arg-Pro-Pro-↓-Gly-Phe-Ser-Pro-Phe-Arg”, the Cleavage site (Peptide 10) was “H-Val-Glu-Pro-↓-Ile-Pro-Tyr” and the Cleavage site (Peptide 11) was “H-Arg-Gly-Pro-↓-Phe-Pro-Ile”. For the same protein, the Cleavage site (Peptide 12) was “H-Ala-Arg-Pro-↓-Ala-D-Lys-amide”, the Cleavage site (Peptide 13) was “H-Pro-Asn-Pro-↓-Asn-Gln-Gly-Asn-Phe-Ile” and the Cleavage site (Peptide 14) was “H-Arg-His-Pro-↓-Lys-Tyr-Lys-Thr-Glu-Leu”. For the same protein, the Cleavage site (Peptide 15) was “H-Gly-Val-Pro-↓-Lys-Thr-His-Leu-Glu-Leu”, the “Cleavage site (no ↓ printed: not cleaved)” value (Peptide 16) was “H-Lys-Gly-Pro-Pro-Ala-Ala-Leu-Thr-Leu” and the “Cleavage site (no ↓ printed: not cleaved)” value (Peptide 18) was “H-Phe-Leu-Arg-Glu-Pro-Val-Ile-Phe-Leu”. For the same protein, the “Cleavage site (no ↓ printed: not cleaved)” value (Peptide 19) was “H-Gly-Ile-Arg-Pro-Tyr-Glu-Ile-Leu-Ala”, the “Cleavage site (no ↓ printed: not cleaved)” value (Peptide 22) was “H-Lys-Ile-Ala-Gly-Tyr-His-Leu-Glu-Leu” and the Cleavage site (Peptide 2) was “H-Arg-Pro-Pro-↓-Gly-Phe”. The “Cleavage site (no ↓ printed: not cleaved)” value (Peptide 5) was “H-Arg-Pro-Hyp-Gly-Phe-Ser-Pro-Phe-Arg”, the Cleavage site (Peptide 8) was “H-Val-Pro-Pro-↓-Gly-Glu-Asp-Ser-Lys” and the “Cleavage site (no ↓ printed: not cleaved)” value (Peptide 9) was “Ac-Val-Pro-Pro-Gly-Glu-Asp-Ser-Lys”.
